The record followed here is patent publication US20160237119A1 (UNIVERSITY OF TOKYO, published 2016).

Experiment [1] concerns the target T1, c-Met-Fc chimera protein (UniProt P08581 25-932, limits assumed).
T1 construct: Captured on the SPR chip by an anti-IgG antibody; not shown: Fc part
The experiment can be described thus: SPR presumed (Biacore as in 9-1; method not given), c-Met-Fc on chip. (In general: SPR reads the build-up and loss of mass on a sensor chip optically.)

Experiment [2] concerns the target T1, c-Met-Fc chimera protein. The experiment in a line: SPR (Biacore), c-Met-Fc captured by anti-IgG on CM5, single-cycle kinetics. The protocol: (§1) As a sensor chip, Sensor Chip CM5 was used and an anti-IgG antibody was immobilized on a measurement lane and a control lane by using Human Antibody Capture Kit.
(§2) On the measurement lane was immobilized c-Met-Fc, while on the control lane was immobilized Fc protein.
(§3) As a running buffer, HBS-EP+ buffer containing 0.1% DMSO was used and a dissociation constant of the thioether macrocyclic peptide was calculated at 5 different concentrations by using the single-kinetics method.

For experiment [3], the target named is T1, c-Met-Fc chimera protein. Described as above. The procedure: as §1, §2, §3
This is another data set of the same source.

Experiment [4] deals with T1, c-Met-Fc chimera protein. The experiment can be described thus: SPR presumed (Biacore as in 9-1; method not given), c-Met-Fc on chip. This is another data set of the same source.

Like-named read-outs stand apart in the source and are kept apart here. Bridges are numbered along the chain shown (N, C = ends). Roman numbers before positions name the chains, in order. Primed or numbered codes have the meaning given here. Where no end group is shown, it is not given here. [ ]: non-standard residue; d: D form. NMeW = CN[C@@H](Cc1c[nH]c2ccccc12)C(=O)O; NMeR = CN[C@@H](CCCNC(=N)N)C(=O)O; NMeF = CN[C@@H](Cc1ccccc1)C(=O)O; NMeT = CN[C@H](C(=O)O)[C@@H](C)O; NMeE = CN[C@@H](CCC(=O)O)C(=O)O; NMeQ = CN[C@@H](CCC(N)=O)C(=O)O; NMeD = CN[C@@H](CC(=O)O)C(=O)O; NMeN = CN[C@@H](CC(N)=O)C(=O)O; NMeV = CN[C@H](C(=O)O)C(C)C; NMeC = CN[C@@H](CS)C(=O)O; BMH′ = not defined here

T1 sequence (P08581 25-932 limits assumed, change not shown): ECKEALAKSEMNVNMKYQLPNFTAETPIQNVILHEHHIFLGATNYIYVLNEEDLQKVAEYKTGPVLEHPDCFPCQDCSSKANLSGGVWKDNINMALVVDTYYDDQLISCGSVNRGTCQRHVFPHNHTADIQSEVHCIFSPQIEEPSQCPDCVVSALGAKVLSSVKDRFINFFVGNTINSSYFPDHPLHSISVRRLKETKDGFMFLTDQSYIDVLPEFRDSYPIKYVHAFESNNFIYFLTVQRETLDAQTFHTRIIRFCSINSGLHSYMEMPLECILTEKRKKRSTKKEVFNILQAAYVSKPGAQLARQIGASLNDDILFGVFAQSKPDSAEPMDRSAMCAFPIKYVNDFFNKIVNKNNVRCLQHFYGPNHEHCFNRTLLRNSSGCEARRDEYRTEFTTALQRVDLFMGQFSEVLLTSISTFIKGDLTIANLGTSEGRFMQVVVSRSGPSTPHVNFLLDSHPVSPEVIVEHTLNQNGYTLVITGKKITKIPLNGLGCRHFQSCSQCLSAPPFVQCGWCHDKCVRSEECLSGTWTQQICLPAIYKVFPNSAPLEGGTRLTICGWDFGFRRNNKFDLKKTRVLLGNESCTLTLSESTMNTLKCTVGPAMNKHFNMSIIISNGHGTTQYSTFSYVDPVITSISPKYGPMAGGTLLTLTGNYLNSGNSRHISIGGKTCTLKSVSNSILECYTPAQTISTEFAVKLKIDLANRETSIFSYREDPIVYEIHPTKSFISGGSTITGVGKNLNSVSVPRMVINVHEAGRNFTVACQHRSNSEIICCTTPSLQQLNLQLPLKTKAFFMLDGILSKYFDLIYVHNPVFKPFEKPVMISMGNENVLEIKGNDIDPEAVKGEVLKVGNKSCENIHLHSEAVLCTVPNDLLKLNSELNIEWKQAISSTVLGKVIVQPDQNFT

One may read the Kd as the equilibrium constant for the complex coming apart. The low end stands for tighter binding, the high end for weaker binding. The term koff denotes the rate constant with which the complex falls apart. Read a high koff as fast dissociation. One may read the kon as the rate constant with which the complex forms. A high value points to fast association. In the experiment with c-Met-Fc chimera protein [1], {CH2CO}-YRQFNRRTHE[NMeV]WNLDCG (thioether N-16) [N11, N-methylated D4-3 peptide] showed a dissociation constant Kd of 350 nM, a koff of 0.0051 s⁻¹ and a kon of 15000 M⁻¹ s⁻¹.

For the molecule {CH2CO}-YRQ[NMeF]NRRTHEVWNLDCG (thioether N-16 (inferred)) [N4, N-methylated D4-3 peptide], in the experiment with c-Met-Fc chimera protein [1], the Kd is 79 nM, the koff amounted to 0.0096 s⁻¹ and the kon worked out at 120000 M⁻¹ s⁻¹.

Molecule {CH2CO}-YRQFNR[NMeR]THEVWNLDCG (thioether N-16) [D4-3-N7] came in with a Kd in the experiment with c-Met-Fc chimera protein [1] of 130 nM.

B1: D4-3NMe dimeric peptide, linker Bis-MAL-PEG11 (peptide)
peptide: {CH2CO}-YRQFN[NMeR]RTHEVWNLD[NMeC]GC(Bis‑MAL‑PEG11)
modifications: thioether N-16; also: dimer via Bis-MAL-PEG11
notes: also called D4-3NMe Bis-MAL-PEG11; dimerized N-methylated D4-3 peptide
In the experiment with c-Met-Fc chimera protein [2], B1 showed a Kd of 0.81 nM, a koff of 0.0004 s⁻¹ and an association rate constant (kon) of 490000 M⁻¹ s⁻¹.

B2: D4-3scr (peptide)
peptide: {CH2CO}-YERVNHLFRNQTWDRCG
modifications: thioether N-16
notes: Negative control; also called negative control peptide
Consider B2, for which, in the experiment with c-Met-Fc chimera protein [3], the binding result is “no binding”.

B3: N14, N-methylated D4-3 peptide (peptide)
peptide: {CH2CO}-YRQFNRRTHEVWNLDCG
modifications: thioether N-16; not fully specified (residues 1, 14); also: one N-methylated residue, position given only by label N14
As for B3, in the experiment with c-Met-Fc chimera protein [1], binding was put at a Kd of 290 nM, the koff was 0.0059 s⁻¹ and the kon was determined as 21000 M⁻¹ s⁻¹.

As to {CH2CO}-YISWNEFNSPNWRFITCG (thioether N-17, also called L5-2 peptide; L5-2 Monomer) [L5-2], in the experiment with c-Met-Fc chimera protein [2], the Kd stood at 5.4 nM, the koff is 0.012 s⁻¹ and the kon stood at 2.3e+06 M⁻¹ s⁻¹. Also, in the experiment with c-Met-Fc chimera protein [3], the Kd amounted to 5.4 nM, the off-rate constant (koff) stood at 0.012 s⁻¹ and the kon came to 2.3e+06 M⁻¹ s⁻¹.

B4: D4-3 dimeric peptide, linker Bis-MAL-PEG3 (peptide)
peptide: {CH2CO}-YRQFNRRTHEVWNLDCGC(Bis‑MAL‑PEG3)
modifications: thioether N-16; not fully specified (residue 1); also: dimer: two copies joined by Bis-MAL-PEG3 at Cys18
notes: Two macrocyclic peptides joined through their C-terminal Cys by Bis-MAL-PEG3; also called D4-3 Bis-MAL-PEG3
Take B4: in the experiment with c-Met-Fc chimera protein [2], the Kd came to 0.64 nM, the koff stood at 0.0007 s⁻¹ and the kon worked out at 1.1e+06 M⁻¹ s⁻¹.

Take {CH2CO}-YRQFN[NMeR]RTHEVWNLDCG (thioether N-16) [D4-3-N6]: in the experiment with c-Met-Fc chimera protein [4], the Kd was 34 nM, the koff was determined as 0.0041 s⁻¹ and the association rate constant (kon) was 120000 M⁻¹ s⁻¹. For the same molecule, in the experiment with c-Met-Fc chimera protein [1], binding was put at a Kd of 34 nM, the koff worked out at 0.0041 s⁻¹ and the kon was found to be 120000 M⁻¹ s⁻¹.

On to {CH2CO}-YRQFNRRTHEV[NMeW]NLDCG (thioether N-16) [N12, N-methylated D4-3 peptide], for which, in the experiment with c-Met-Fc chimera protein [1], the Kd was found to be 160 nM, the koff worked out at 0.0086 s⁻¹ and the kon was 55000 M⁻¹ s⁻¹.

B5: D4-3 dimeric peptide, linker Bis-MAL-PEG11 (peptide)
peptide: {CH2CO}-YRQFNRRTHEVWNLDCGC(Bis‑MAL‑PEG11)
modifications: thioether N-16; not fully specified (residue 1); also: dimer: two copies joined by Bis-MAL-PEG11 at Cys18
notes: Two macrocyclic peptides joined through their C-terminal Cys by Bis-MAL-PEG11; also called D4-3 Bis-MAL-PEG11
On to B5, for which, in the experiment with c-Met-Fc chimera protein [2], the affinity, expressed as Kd, was 0.9 nM; the koff turned out to be 0.0011 s⁻¹; the on-rate constant (kon) stood at 1.2e+06 M⁻¹ s⁻¹.

With {CH2CO}-YRQFNRRTHEVW[NMeN]LDCG (thioether N-16) [N13, N-methylated D4-3 peptide], in the experiment with c-Met-Fc chimera protein [1], the Kd turned out to be 33 nM, the koff worked out at 0.0026 s⁻¹ and the on-rate constant (kon) was determined as 78000 M⁻¹ s⁻¹.

As to {CH2CO}-[dY]WYYAWDQTYKAFPCG (thioether N-15, also called D5-4 peptide; D5-4 Monomer) [D5-4], in the experiment with c-Met-Fc chimera protein [2], the Kd amounted to 4.6 nM, the dissociation rate constant (koff) worked out at 0.021 s⁻¹ and the kon worked out at 4.5e+06 M⁻¹ s⁻¹. In addition, in the experiment with c-Met-Fc chimera protein [3], the Kd was 4.6 nM, the koff was found to be 0.021 s⁻¹ and the kon is 4.5e+06 M⁻¹ s⁻¹.

Take {CH2CO}-YRQFNRRTHEVWNL[NMeD]CG (thioether N-16 (inferred)) [N15, N-methylated D4-3 peptide]: in the experiment with c-Met-Fc chimera protein [1], the affinity, expressed as Kd, was 160 nM; the off-rate (koff) is 0.046 s⁻¹; the kon stood at 300000 M⁻¹ s⁻¹.

As for {CH2CO}-YRQFNRRTH[NMeE]VWNLDCG (thioether N-16) [N10, N-methylated D4-3 peptide], in the experiment with c-Met-Fc chimera protein [1], the Kd was found to be 300 nM, the koff is 0.0075 s⁻¹ and the kon was 25000 M⁻¹ s⁻¹.

Consider {CH2CO}-YRQFNRRTHEVWNLD[NMeC]G (thioether N-16 (inferred)) [N16, N-methylated D4-3 peptide], for which, in the experiment with c-Met-Fc chimera protein [4], the Kd was 10 nM, the koff came to 0.01 s⁻¹ and the kon is 980000 M⁻¹ s⁻¹. In the experiment with c-Met-Fc chimera protein [1], the Kd was 10 nM, the off-rate (koff) came to 0.01 s⁻¹ and the kon is 980000 M⁻¹ s⁻¹.

In the experiment with c-Met-Fc chimera protein [1], {CH2CO}-Y[NMeR]QFNRRTHEVWNLDCG (thioether N-16 (inferred)) [N2, N-methylated D4-3 peptide] gave a Kd of 14 nM, a koff of 0.01 s⁻¹ and a kon of 710000 M⁻¹ s⁻¹.

B6: D5-4 dimeric peptide, linker Bis-MAL-PEG11 (peptide)
peptide 1: [dY]WYYAWDQTYKAFPCG
peptide 2: [dY]WYYAWDQTYKAFPCG
modifications: thioether I:N-I:15, II:N-II:15 via Ac; not fully specified (N-terminus, bridges); also: dimer: two copies joined by Bis-MAL-PEG11 through an added C-terminal Cys (handle not in letters)
notes: Two macrocyclic peptides joined through their C-terminal Cys by Bis-MAL-PEG11; also called D5-4 Bis-MAL-PEG11; not shown: C-terminal handle of each copy (spacer residue plus Cys)
In the experiment with c-Met-Fc chimera protein [2], B6 yielded a Kd of 2.1 nM, a koff of 0.011 s⁻¹ and a kon of 5.3e+06 M⁻¹ s⁻¹.

B7: D5-4 dimeric peptide, linker Bis-MAL-PEG3 (peptide)
peptide 1: [dY]WYYAWDQTYKAFPCG
peptide 2: [dY]WYYAWDQTYKAFPCG
modifications: thioether I:N-I:15, II:N-II:15 via Ac; not fully specified (N-terminus, bridges); also: dimer: two copies joined by Bis-MAL-PEG3 through an added C-terminal Cys (handle not in letters)
notes: Two macrocyclic peptides joined through their C-terminal Cys by Bis-MAL-PEG3; also called D5-4 Bis-MAL-PEG3; not shown: C-terminal handle of each copy (spacer residue plus Cys)
Turning to B7, in the experiment with c-Met-Fc chimera protein [2], binding was characterised by a dissociation constant (Kd) of 4.7 nM, the koff amounted to 0.00054 s⁻¹ and the association rate constant (kon) was determined as 120000 M⁻¹ s⁻¹.

B8: D4-3NMe (peptide)
peptide: {CH2CO}-YRQFN[NMeR]RTHEVWNLD[NMeC]G
modifications: thioether N-16
notes: also called NMe (N6 + N16); N-methylated D4-3
In the experiment with c-Met-Fc chimera protein [2], B8 yielded a Kd of 5.2 nM, a koff of 0.0021 s⁻¹ and a kon of 390000 M⁻¹ s⁻¹. In addition, in the experiment with c-Met-Fc chimera protein [4], the Kd worked out at 5.2 nM, the koff was determined as 0.0021 s⁻¹ and the on-rate constant (kon) came out at 390000 M⁻¹ s⁻¹. In addition, in the experiment with c-Met-Fc chimera protein [3], binding was put at a Kd of 5.2 nM, the koff was determined as 0.0021 s⁻¹ and the kon was 390000 M⁻¹ s⁻¹.

B9: D4-3scr dimeric peptide, linker BMH (peptide)
peptide: {CH2CO}-YERVNHLFRNQTWDRCGC(BMH′)
modifications: thioether N-16; also: dimer: two copies joined by BMH at Cys18
notes: Negative control dimer; also called D4-3scr BMH
Regarding B9, in the experiment with c-Met-Fc chimera protein [2], the binding result was “no binding”.

B10: D4-3 dimeric peptide, linker BMH (peptide)
peptide: {CH2CO}-YRQFNRRTHEVWNLDCGC(BMH′)
modifications: thioether N-16; not fully specified (residue 1); also: dimer: two copies joined by BMH at Cys18
notes: Two macrocyclic peptides joined through their C-terminal Cys by BMH; also called D4-3 BMH
In the experiment with c-Met-Fc chimera protein [2], B10 yielded a Kd of 0.45 nM, a koff of 0.00091 s⁻¹ and an on-rate (kon) of 2e+06 M⁻¹ s⁻¹.

B11: D5-4 dimeric peptide, linker BMH (peptide)
peptide 1: [dY]WYYAWDQTYKAFPCG
peptide 2: [dY]WYYAWDQTYKAFPCG
modifications: thioether I:N-I:15, II:N-II:15 via Ac; not fully specified (N-terminus, bridges); also: dimer: two copies joined by BMH through an added C-terminal Cys (handle not in letters)
notes: Two macrocyclic peptides joined through their C-terminal Cys by BMH; also called D5-4 BMH; not shown: C-terminal handle of each copy (spacer residue plus Cys)
In the case of B11, in the experiment with c-Met-Fc chimera protein [2], the Kd was found to be 12 nM, the koff was 0.00055 s⁻¹ and the kon is 46000 M⁻¹ s⁻¹.

For the molecule {CH2CO}-YR[NMeQ]FNRRTHEVWNLDCG (thioether N-16 (inferred)) [N3, N-methylated D4-3 peptide], in the experiment with c-Met-Fc chimera protein [1], the Kd was 120 nM, the off-rate constant (koff) stood at 0.0031 s⁻¹ and the on-rate constant (kon) is 27000 M⁻¹ s⁻¹.

In the experiment with c-Met-Fc chimera protein [1], {CH2CO}-YRQF[NMeN]RRTHEVWNLDCG (thioether N-16 (inferred)) [N5, N-methylated D4-3 peptide] returned a Kd of 200 nM, a koff of 0.0039 s⁻¹ and an on-rate constant (kon) of 19000 M⁻¹ s⁻¹.

Turning to {CH2CO}-YRQFNRR[NMeT]HEVWNLDCG (thioether N-16) [D4-3-N8], in the experiment with c-Met-Fc chimera protein [1], the Kd was determined as 220 nM, the koff is 0.006 s⁻¹ and the kon amounted to 27000 M⁻¹ s⁻¹.
